Test [1] has as its target T1, S-terminase (small terminase subunit) of bacteriophage P22, full length, MBP cleaved off (bacteriophage P22, UniProt P04893 1-162).
T1 sequence (looked up): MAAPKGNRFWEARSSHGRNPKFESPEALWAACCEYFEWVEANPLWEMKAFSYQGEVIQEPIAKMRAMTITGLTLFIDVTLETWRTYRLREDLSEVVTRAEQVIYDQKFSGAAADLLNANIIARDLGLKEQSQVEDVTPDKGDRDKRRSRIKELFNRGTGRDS
In words: native MS.

The target in test [2] is T2, MBP-tagged L-terminase Binding Domain of P22 S-terminase (residues 140-162) (bacteriophage P22, UniProt P04893 140-162).
T2 chain (looked up): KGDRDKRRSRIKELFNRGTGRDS
Description: AUC.

Test [3] addresses T3, L-terminase ATPase domain of bacteriophage P22 (residues 1-287) (bacteriophage P22, UniProt P26745 1-287).
T3 sequence (looked up): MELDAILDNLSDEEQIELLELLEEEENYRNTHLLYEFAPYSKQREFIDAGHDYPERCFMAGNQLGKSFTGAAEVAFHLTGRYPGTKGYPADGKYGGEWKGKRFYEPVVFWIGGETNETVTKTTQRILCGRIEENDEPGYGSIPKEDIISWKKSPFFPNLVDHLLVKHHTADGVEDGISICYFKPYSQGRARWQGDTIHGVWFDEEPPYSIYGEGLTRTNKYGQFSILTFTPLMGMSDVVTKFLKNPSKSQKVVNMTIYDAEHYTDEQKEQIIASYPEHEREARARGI
Description: pull-down.

Test [4] has as its target T4, full length L-terminase of bacteriophage P22, purified alone for the pull-down (bacteriophage P22, UniProt P26745 1-499).
T4 sequence (looked up): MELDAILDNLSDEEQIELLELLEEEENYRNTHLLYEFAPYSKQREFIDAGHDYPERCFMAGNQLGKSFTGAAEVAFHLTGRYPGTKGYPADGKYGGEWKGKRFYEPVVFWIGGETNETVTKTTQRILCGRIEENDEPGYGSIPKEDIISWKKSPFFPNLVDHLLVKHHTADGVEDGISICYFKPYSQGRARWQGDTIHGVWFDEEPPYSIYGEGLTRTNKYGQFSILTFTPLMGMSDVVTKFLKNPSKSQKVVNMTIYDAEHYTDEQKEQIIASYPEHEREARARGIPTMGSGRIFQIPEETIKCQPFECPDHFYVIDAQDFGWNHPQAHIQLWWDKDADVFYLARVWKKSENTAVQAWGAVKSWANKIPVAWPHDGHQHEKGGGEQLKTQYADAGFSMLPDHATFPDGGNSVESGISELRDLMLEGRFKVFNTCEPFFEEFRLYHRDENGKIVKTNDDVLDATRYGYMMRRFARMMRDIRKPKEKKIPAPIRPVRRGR
Description: pull-down.

Where “and” joins values, the source holds several entries; their conditions need not be identical. Equal values may be shown once.

The source of these data is PMC4587339 (Journal of molecular biology, 2015).

A word on the stoichiometry N: it is a count of units in the complex or per binding partner.

B1: L-terminase (large terminase subunit) of bacteriophage P22, full length, co-expressed (enzyme, UniProt P26745 1-499, looked up)
chain: T4 sequence (looked up)
As for B1, the “stoichiometry N” value in test [1] was 1 L-terminase per S-terminase nonamer and 2 L-terminase per S-terminase nonamer and 3 L-terminase per S-terminase nonamer; in test [2] it was 1 L-terminase per MBP-LBD.
KGDRDKRRSRIKELFNRGTGRDS (domain or fragment, bacteriophage P22, UniProt P04893 140-162, looked up) [GST-tagged L-terminase Binding Domain of P22 S-terminase (residues 140-162)]: the binding result in test [3] and in test [4] was “binds” each time.
